Laboratory results from PMC3510020.

Molecular target: Mal3 (UniProt Q10113)
Assay: Mal3-GST pull-down from yeast lysate
Conditions: reference: wild-type Klp2-GFP; sites S113,S123

Klp2 (from UniProt Q9US03) Klp2-2A-GFP
binding against the reference: stronger
